{"source": "patent US20170253650A1", "about": "(FRAUNHOFER GESELLSCHAFT ZUR FOERDERUNG DER ANGEWANDTEN …, published 2017)", "binders": {"B1": {"name": "Gb-2.44 (enterokinase-activated EGb-2.44scFv fusion protein: granzyme B R201K fused to MSP4-specific scFv 2.44) (other)", "chain": "SRHIDDDDKIIGGHEAKPHSRPYMAFLMIWDQKSLKRCGGFLIRDDFVLTAAHCWGSSINVTLGAHNIKEQEPTQQFIPVKRAIPHPAYNPKNFSNDIMLLQLERKAKRTRAVQPLRLPSNKAQVKPGQTCSVAGWGQTAPLGKHSHTLQEVKMTVQEDRKCESDLRHYYDSTIELCVGDPEIKKTSFKGDSGGPLVCNKVAQGIVSYGKNNGMPPRACTKVSSFVHWIKKTMKRYAEHEGDAAQPAMADVQLQESGPGLVKPSQSLSLTCTVTGYSITSDFAWNWIRQFPGNRLEWMGYMGYTGSTSYNPSLRGRISITRDTSKNQFFLQLNSVTTEDTATYYCARGDYYGSRGYFDVWGAGTTVTVSSGGGGSGGGGSSGGGSGGGGSEIVLTQSPALMAASPGEKVTITCSVSSSIRSSNLHWYQQKSDTSPKPWIYGTSNLASGVPVRFSGSGSGTSYSLTISTMEAEDAATYYCQQWSSYPFTFGSGTKLEIKAAANSSLGSGWSHPQFEKTGHHHHHHHHGGQ"}}, "key": {"[1]": {"molecular_target": "MSP4 on P. falciparum 3D7A parasites (mature schizonts / merozoite surface) (Plasmodium falciparum 3D7A)", "test": "cell-based or functional assay"}, "[2]": {"molecular_target": "MSP4 on P. falciparum K1 parasites (multi-drug-resistant strain) (Plasmodium falciparum K1)", "test": "cell-based or functional assay"}}}
{"binder": "B1", "values": [{"measurement": "half maximal inhibitory concentration (IC50-value), 48-h drug susceptibility assay on P. falciparum 3D7A (PfHRP2 ELISA)", "setting": "[1]", "result": 176, "unit": "nM"}, {"measurement": "IC50-value, 48-h drug susceptibility assay on multi-drug resistant strain P. falciparum K1 (PfHRP2 ELISA)", "setting": "[2]", "result": 247, "unit": "nM"}]}
